The values below come from patent publication US10920265B2, “Compounds and methods for detection of enzymes that remove methyl succinyl groups from epsilon-amino lysine moieties” (Enzo Life Sciences, Inc., priority 2011, dated 2021).

Substrate in this series: CC(=O)N[C@@H](CCCCNC(=O)CCC(=O)O)C(=O)Nc1ccc2c(C)cc(=O)oc2c1
Briefly: SIRT5 desuccinylation/deacetylation of fluorogenic lysyl substrates, trypsin developer. The settings on record: other: varied substrate: Lysyl, 1 mM NAD^+, 10 ng SIRT5, 20 min. at 37° C., pH 8.0. It is filed as biochemical, human. On the procedure:
FIG. 3 is graphs showing that SIRT5 catalyzes NAD^+-dependent desuccinylation of Ac-Lys(ε-succinyl)-AMC far more efficiently than NAD^+-dependent deacetylation of Ac-Arg-His-Lys-Lys(ε-acetyl)-AMC. Fifty μl reactions in Assay Buffer (50 mM Tris/HCl, pH 8.0, 137 mM NaCl, 2.7 mM KCl, 1 mM MgCl2, 1 mg/ml BSA) included 50 μM of either Ac-Lys(ε-succinyl)-AMC or Ac-Arg-His-Lys-Lys(ε-acetyl)-AMC, and, where indicated, 500 μM NAD^+ and 5 μg recombinant human SIRT5 (Enzo Life Sciences Cat. # BML-SE555). […] AMC fluorescence was read in a Cytofluor II plate-reading fluorimeter (Perseptive Biosystems) at wavelengths 360 nm (excitation)/460 nm (emission), Gain 54. Data represent the mean of two (No Enzyme) or three (+SIRT5) determinations and error bars the standard deviations. Panels A and B present the same data, but with the +SIRT5/+NAD^+/Ac-Lys(ε-succinyl)-AMC bar omitted from B to show the detail on the remaining bars. Statistically significant differences (Student's t-test) are indicated by asterisks as follows: *: p<0.02 vs. corresponding No Enzyme control; **: p<0.001 vs. corresponding −NAD^+ control; ***: p<3×10^−6 vs. both No Enzyme and −NAD^+ controls.
FIG. 4 is a graph showing that Ac-Lys(Succ.)-AMC enables SIRT5 assay at low enzyme concentrations. Fifty μl reactions in Assay Buffer (50 mM Tris/HCl, pH 8.0, 137 mM NaCl, 2.7 mM KCl, 1 mM MgCl2, 1 mg/ml BSA) included 2 or 10 μM Ac-Lys(ε-succinyl)-AMC, 500 μM NAD^+ and, where indicated, 5 ng recombinant human SIRT5 (Enzo Life Sciences Cat. # BML-SE555). […] AMC fluorescence was read in a Synergy 2 plate-reading fluorimeter (BioTek) at wavelengths 360 nm (excitation)/460 nm (emission), Gain 40. Data represent the mean of two (No Enzyme) or three (5 ng SIRT5) determinations and error bars the standard deviations. Statistically significant differences (Student's t-test) are indicated by asterisks as follows: *: p=0.002; **: p=0.009, each with respect to the corresponding “No SIRT5” samples.
FIG. 5 is graphs showing dependence of SIRT5 initial rate kinetics on the concentrations of Ac-Lys(Succ.)-AMC and Ac-Lys(Ac.)-AMC. Fifty μl desuccinylation or deacetylation reactions were performed as described earlier (FIG. 4), with the indicated concentrations of Ac-Lys(Succ.)-AMC or Ac-Lys(Ac.)-AMC and 1 mM NAD^+, for 20 min. at 37° C. Reactions with Ac-Lys(Succ.)-AMC contained 10 ng SIRT5 and those with Ac-Lys(Ac.)-AMC contained 5 SIRT5. […] AMC fluorescence was read in a Synergy 2 plate-reading fluorimeter (BioTek) at wavelengths 360 nm (excitation)/460 nm (emission), Gain 40. […] Fluorescence differences were converted to specific activities (pmol/min/μg) by measuring the fluorescence increase due to the addition a standard solution of AMC (5 μl of a […]). […]

B1: recombinant human SIRT5 (Homo sapiens) (protein)
chain: SSSMADFRKFFAKAKHIVIISGAGVSAESGVPTFRGAGGYWRKWQAQDLATPLAFAHNPSRVWEFYHYRREVMGSKEPNAGHRAIAECETRLGKQGRRVVVITQNIDELHRKAGTKNLLEIHGSLFKTRCTSCGVVAENYKSPICPALSGKGAPEPGTQDASIPVEKLPRCEEAGCGGLLRPHVVWFGENLDPAILEEVDRELAHCDLCLVVGTSSVVYPAAMFAPQVAARGVPVAEFNTETTPATNRFRFHFQGPCGTTLPEALACHENETVS
notes: purchased Enzo Life Sciences BML-SE555
In general, Km refers to the concentration of substrate that gives half-maximal velocity. A word on the kcat: it is the number of substrate molecules converted per active site and unit of time at saturation. The term kcat/Km denotes the turnover number divided by the Michaelis constant. Take B1: the Michaelis constant (Km) stood at 108 µM, the Vmax came out at 490 pmol/min/µg, the kcat worked out at 0.26 s⁻¹ and the kcat/Km came to 2450 M⁻¹ s⁻¹.
